{
  "source": "IntAct's records for PubMed 22247544",
  "parents": {"B1": {"name": "Corticotropin-releasing factor receptor 1 (Homo sapiens), P34998 (parent)", "chain": "MGGHPQLRLVKALLLLGLNPVSASLQDQHCESLSLASNISGLQCNASVDLIGTCWPRSPAGQLVVRPCPAFFYGVRYNTTNNGYRECLANGSWAARVNYSECQEILNEEKKSKVHYHVAVIINYLGHCISLVALLVAFVLFLRLRSIRCLRNIIHWNLISAFILRNATWFVVQLTMSPEVHQSNVGWCRLVTAAYNYFHVTNFFWMFGEGCYLHTAIVLTYSTDRLRKWMFICIGWGVPFPIIVAWAIGKLYYDNEKCWFGKRPGVYTDYIYQGPMILVLLINFIFLFNIVRILMTKLRASTTSETIQYRKAVKATLVLLPLLGITYMLFFVNPGEDEVSRVVFIYFNSFLESFQGFFVSVFYCFLNSEVRSAIRKRWHRWQDKHSIRARVARAMSIPTSPTRVSFHSIKQSTAV"}},
  "data": [
    {"variants_of": "B1", "settings": "with GNAI2, P04899-1", "values": [
      {"variant": "R292A", "effect of a mutation on the interaction": "decreasing interaction strength"},
      {"variant": "K314A", "effect of a mutation on the interaction": "decreasing interaction strength"}
    ]}
  ]
}
